Results from patent CN113265001A (HUADAO SHANGHAI BIOMEDICAL CO LTD, dated 2021).

Target: T1, BCMA抗原 (antigen in solution, Biacore) (UniProt Q02223 1-54, limits assumed)
T1 construct: also called B细胞成熟抗原; CD269
T1 sequence (looked up): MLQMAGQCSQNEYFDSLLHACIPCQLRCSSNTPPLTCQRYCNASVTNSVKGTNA
Assay: Biacore SPR, antibody immobilised on the chip, antigen in the mobile phase

- Kd: 0.0634 nM
- koff: 0.000429 s⁻¹
- kon: 6.77e+06 M⁻¹ s⁻¹
B1: BCMA-12 VHH-mIgG2a Fc 纳米抗体 (Fc fusion)
chain: EVQLVESGGDSVQAGGSLRLSCAVSGYTDSKNLMGWFRQAPGKEREGVAVIYTGGGRPVYADSVKGRFTISQDSAKNTVYLQMNSLKPEDTALYYCAADYLGGAWPFGAYRYWGQGTQVTVSS
notes: also called BCMA VHH B12; BCMA VHH抗体; not shown: mouse IgG2a Fc tag of vector C-4 pCP.Stuffer-mCg2a-FC
